Measured values: paper PMC13462943

Molecular target: SAM
Experiment: native mass spectrometry
Settings: protein and substrate concentrations 5 µM

An other: relative abundance, 1x SAM bound (parent: 11) of 18 and an other: relative abundance, free protein (parent: 88) of 80 were found for “GLP methyltransferase domain (aa 1001-1266), wild type (from UniProt Q9H9B1-1) C1073Y” in this work.
